Article PMC4177747, “Derlin-1 Regulates Mutant VCP-Linked Pathogenesis and Endoplasmic Reticulum Stress-Induced Apoptosis” (PLoS Genetics, 2014)

Target: T1, TER94 (endogenous, the fly VCP homolog) (Drosophila (endogenous in flies), UniProt Q7KN62 1-801)
T1 construct: TER94, the Drosophila homolog of VCP, endogenous, detected with anti-VCP; also called TER94^WT; source: endogenous, whole fly lysate
Experiment: co-IP; anti-VCP on protein A-agarose; lysates of wild-type flies untreated or kept at 0°C for two hours and recovered for four hours at 25°C; blot with anti-VCP and anti-Derlin-1
Conditions: partners not purified

T1 sequence (Q7KN62 whole entry): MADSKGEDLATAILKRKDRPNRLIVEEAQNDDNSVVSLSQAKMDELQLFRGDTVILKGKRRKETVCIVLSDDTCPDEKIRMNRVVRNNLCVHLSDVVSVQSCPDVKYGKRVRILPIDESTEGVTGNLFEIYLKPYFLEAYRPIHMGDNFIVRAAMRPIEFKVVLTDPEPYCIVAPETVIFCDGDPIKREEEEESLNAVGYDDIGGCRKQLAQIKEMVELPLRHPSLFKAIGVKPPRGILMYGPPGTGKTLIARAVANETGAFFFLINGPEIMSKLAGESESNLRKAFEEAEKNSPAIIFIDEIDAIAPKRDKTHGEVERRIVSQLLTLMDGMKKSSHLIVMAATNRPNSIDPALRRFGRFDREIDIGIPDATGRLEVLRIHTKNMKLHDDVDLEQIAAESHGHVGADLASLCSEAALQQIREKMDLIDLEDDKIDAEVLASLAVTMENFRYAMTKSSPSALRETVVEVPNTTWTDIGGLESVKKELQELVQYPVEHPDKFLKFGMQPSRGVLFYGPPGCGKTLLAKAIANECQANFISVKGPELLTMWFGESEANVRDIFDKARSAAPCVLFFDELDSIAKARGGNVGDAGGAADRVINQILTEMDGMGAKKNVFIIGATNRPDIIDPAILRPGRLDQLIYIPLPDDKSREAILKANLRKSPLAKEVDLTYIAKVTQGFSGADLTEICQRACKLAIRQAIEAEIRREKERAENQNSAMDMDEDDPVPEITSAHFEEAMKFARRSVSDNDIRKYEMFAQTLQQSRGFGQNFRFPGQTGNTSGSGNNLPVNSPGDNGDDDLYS

fold increase of the level of Derlin-1/TER94 complexes after cold treatment against untreated (normalised to TER94): 4.9 ± 0.98 fold
B1: Derlin-1 (endogenous, fly) (natural protein, Drosophila (endogenous in flies), UniProt Q9VQ57 1-245, looked up)
chain: MDAGVWYRSLPRFTRYWLTATVVLSMLCRFDVIPLHWLHLDRSAVFSKLQLWRCMTSLFVFPISSNTAFHFLINCFFIVQYSSKLEKDQYSRSPADYLYLLIVSAVLANIGGMIFNVYFLMDTLVLAITYIWCQLNKDVTVSFWFGTRFKAMYLPWVLAAFEFIFHFSLASLVGIFVGHVYYFFKFQYSQDLGGTPLLETPQFLKRLVPDVSGGFGGFGLPPESRAPPRQATESPWGRGMTLGRN
notes: Derlin-1, Drosophila, endogenous protein of about 27 kD (predicted 28.25 kD); also called endogenous Derlin-1; source: endogenous, whole fly lysate
